Laboratory results taken from patent US20210395725A1.
Numbering of substitutions follows the chain as printed. Values belong to the binder of their own block, whether it stands above or below them.

Legend:
[1] = target: human placental laminin (human); experiment: HEK293-6E cell display flow cytometry; 500 nM laminin-biotin + streptavidin-Alexa Fluor 647; secondary only 4.17
BSA (bovine) = BSA (bovine) (UniProt P02769); experiment: ELISA; BSA as control antigen, neat eluted His-tagged protein, anti-pentaHis-HRP
[2] = target: human placental laminin (human); experiment: HEK293-6E cell display flow cytometry; 500 nM laminin-biotin + streptavidin-Alexa Fluor 647; secondary only 4.11
[3] = target: human placental laminin (human); experiment: HEK293-6E cell display flow cytometry; 500 nM laminin-biotin + streptavidin-Alexa Fluor 647; secondary only 5.57
[4] = target: human placental laminin (human); experiment: HEK293-6E cell display flow cytometry; 500 nM laminin-biotin + streptavidin-Alexa Fluor 647; secondary only 3.28
[5] = target: human placental laminin (human); experiment: HEK293-6E cell display flow cytometry; 500 nM laminin-biotin + streptavidin-Alexa Fluor 647; secondary only 6.09
[6] = target: human placental laminin (human); experiment: HEK293-6E cell display flow cytometry; 500 nM laminin-biotin + streptavidin-Alexa Fluor 647; secondary only 1.77
[7] = target: human placental laminin (human); experiment: bead flow cytometry; EVs on CD9+ capture beads, 5 µg/mL biotinylated laminin + neutravidin-PE; with competition of 3-fold molar excess of unlabelled laminin (15 µg/mL)
[8] = target: human placental laminin (human); experiment: bead flow cytometry; EVs on CD9+ capture beads, 5 µg/mL biotinylated laminin + neutravidin-PE; without competition

Sequence of BSA (bovine) (P02769 25-607 limits assumed): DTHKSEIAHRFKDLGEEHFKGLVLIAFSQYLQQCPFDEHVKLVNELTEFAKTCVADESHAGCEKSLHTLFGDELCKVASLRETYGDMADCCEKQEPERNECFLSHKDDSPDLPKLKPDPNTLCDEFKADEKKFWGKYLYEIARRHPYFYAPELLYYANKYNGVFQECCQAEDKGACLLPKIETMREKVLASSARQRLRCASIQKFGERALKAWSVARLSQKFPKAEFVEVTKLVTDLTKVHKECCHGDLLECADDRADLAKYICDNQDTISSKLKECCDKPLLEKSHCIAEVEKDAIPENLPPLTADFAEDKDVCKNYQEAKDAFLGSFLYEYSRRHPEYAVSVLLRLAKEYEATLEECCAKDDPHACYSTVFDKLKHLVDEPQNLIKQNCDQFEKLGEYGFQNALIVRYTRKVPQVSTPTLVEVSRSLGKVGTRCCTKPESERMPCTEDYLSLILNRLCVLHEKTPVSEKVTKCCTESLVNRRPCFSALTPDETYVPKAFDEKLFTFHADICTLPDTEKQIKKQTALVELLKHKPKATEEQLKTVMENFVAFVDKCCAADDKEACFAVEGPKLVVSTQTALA

B2: laminin-binding CD81 LEL mutant L3B_LU1_2 (designed binder)
chain: FVNKDQIAKDVKQFYDQCLKYACKQGDWENAKACVKTFHETLDCCGSSTVANMTRCVLPANLCPSGSNIISNLFKEDCHQKIDDLFSGK
A450/620 (average) (BSA (bovine)): 0.021

B3: laminin-binding CD81 LEL mutant 81_L17 (designed binder)
chain: FVNKDQIAKDVKQFYDQCLRHACSGLSGRNAKACVKTFHETLDCCGSSTIKHKTLCVLIKNLCPSGSNIISNLFKEDCHQKIDDLFSGK
% antigen-positive cells [2]: 28.1%

B4: laminin-binding CD81 LEL mutant L2A_LU1_1 (designed binder)
chain: FVNKDQIAKDVKQFYDQALMICCHRHYANNACAVVKTFHETLDCCGSSTPSSTTPCVLQNNLCPSGSNIISNLFKEDCHQKIDDLFSGK
% antigen-positive cells [3]: 37.9%

B9: laminin-binding CD81 LEL mutant L2B_LU1_1 (designed binder)
chain: FVNKDQIAKDVKQFYDQALWKCCNLSQANNACAVVKTFHETLDCCGSSTYLCATYCVLWPNLCPSGSNIISNLFKEDCHQKIDDLFSGK
% antigen-positive cells [6]: 20.1%

Second part, the binder after the results:

% antigen-positive cells [1]: 30.8%
B1: laminin-binding CD81 LEL mutant 81_L13 (designed binder)
chain: FVNKDQIAKDVKQFYDQCLSWACNRKYEPNAKACVKTFHETLDCCGSSTKANYTHCVLEMNLCPSGSNIISNLFKEDCHQKIDDLFSGK

% antigen-positive cells [4]: 37.1%
B5: laminin-binding CD81 LEL mutant 81_L21 (designed binder)
chain: B4 chain with M20F, H24F, H26R, P50R, S51N, S52N, T53E, P55A, Q59A, N60K

A450/620 (average) (BSA (bovine)): 0.045
B6: laminin-binding CD81 LEL mutant L2A_LU1 (designed binder)
chain: FVNKDQIAKDVKQFYDQALRECCNTFDANNACAVVKTFHETLDCCGSSTTHSSTGCVLFFNLCPSGSNIISNLFKEDCHQKIDDLFSGK

A450/620 (average) (BSA (bovine)): 0.016
B7: laminin-binding CD81 LEL mutant L3A_LU1 (designed binder)
chain: FVNKDQIAKDVKQFYDQCLLWACSKRYKYNAKACVKTFHETLDCCGSSTMGNLTECVLIENLCPSGSNIISNLFKEDCHQKIDDLFSGK

% antigen-positive cells [5]: 54.2%
B8: laminin-binding CD81 LEL mutant L2B_LU1 (designed binder)
chain: FVNKDQIAKDVKQFYDQALVFCCFGGHANNACAVVKTFHETLDCCGSSTHPYKTKCVLQRNLCPSGSNIISNLFKEDCHQKIDDLFSGK

Mean 561 [7]: 23900
Mean 561 - BG [7]: 18700
ratio 488/561 [7]: 0.248
Mean 561 [8]: 20200
Mean 561 - BG [8]: 14800
ratio 488/561 [8]: 0.21
B10: wild-type CD81-eGFP on recombinant EVs (protein, not shown: large carriers)
chain: MGVEGCTKCIKYLLFVFNFVFWLAGGVILGVALWLRHDPQTTNLLYLELGDKAPNTFYVGIYILIAVGAVMMFVGFLGCYGAIQESQCLLGTFFTCLVILFACEVAAGIWGFVNKDQIAKDVKQFYDQALQQAVVDDDANNAKAVVKTFHETLDCCGSSTLTALTTSVLKNNLCPSGSNIISNLFKEDCHQKIDDLFSGKLYLIGIAAIVVAVIMIFEMILSMVLCCGIRNSSVY
